This experiment has as its target sim3-GFP (Arabidopsis thaliana) (UniProt P93002). Briefly: sim3-GFP IP, LC-MS/MS.

Results on six molecules are retold here after patent US20230227838A1, “ENHANCED CELL SURVIVAL AGAINST BIOTIC AND ABIOTIC STRESSES THROUGH SALICYLICK ACID-INDUCED NPR1 CONDENSATES” (priority 2020, published 2023).

Sequence of sim3-GFP (Arabidopsis thaliana) (P93002 other isoform, or with tags, fused parts or gaps): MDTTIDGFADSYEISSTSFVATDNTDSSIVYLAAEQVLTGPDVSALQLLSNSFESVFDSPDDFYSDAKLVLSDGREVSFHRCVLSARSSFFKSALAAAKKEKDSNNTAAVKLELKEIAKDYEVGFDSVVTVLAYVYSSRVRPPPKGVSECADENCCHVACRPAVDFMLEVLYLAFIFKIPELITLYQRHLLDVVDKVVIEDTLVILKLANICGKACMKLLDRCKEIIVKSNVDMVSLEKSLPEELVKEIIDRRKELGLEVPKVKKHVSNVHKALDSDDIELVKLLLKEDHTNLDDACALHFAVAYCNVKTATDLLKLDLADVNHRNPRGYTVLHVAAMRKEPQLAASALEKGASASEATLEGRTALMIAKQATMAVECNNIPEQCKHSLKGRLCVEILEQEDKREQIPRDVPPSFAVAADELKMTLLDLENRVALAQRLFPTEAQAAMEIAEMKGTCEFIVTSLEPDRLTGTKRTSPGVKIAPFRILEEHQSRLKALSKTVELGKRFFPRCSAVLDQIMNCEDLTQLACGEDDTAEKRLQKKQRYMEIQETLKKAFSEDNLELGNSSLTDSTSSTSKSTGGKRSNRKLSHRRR

B1: ADL3, CF1, DL3, DRP2B, dynamin-like 3 (protein, UniProt Q9LQ55 1-920, looked up)
Dynamin-2B: MEAIDELSQLSDSMRQAASLLADEDPDETSSSRRPATSLNVVALGNVGAGKSAVLNSLIGHPVLPTGENGATRAPIIIDLSREESLSSKAIILQIDNKNQQVSASALRHSLQDRLSKGASGRGRDEIYLKLRTSTAPPLKLIDLPGLDQRIVDDSMIGEHAQHNDAILLVVVPASQASEISSSRALKIAKEYDPESTRTVGIISKIDQAAENPKSLAAVQALLSNQGPPKTTDIPWVALIGQSVSIASAQSGGSENSLETAWRAESESLKSILTGAPQSKLGRIALVDTLASQIRSRMKLRLPNILTGLQGKSQIVQDELARLGEQLVSSAEGTRAIALELCREFEDKFLLHLAGGEGSGWKVVASFEGNFPNRIKKLPLDRHFDLNNVKRIVLEADGYQPYLISPEKGLRSLIKTVLELAKDPARLCVDEVHRVLVDIVSASANATPGLGRYPPFKREVVAIASAALDGFKNEAKKMVVALVDMERAFVPPQHFIRLVQRRMERQRREEELKGRSSKKGQDAEQSLLNRATSPQPDGPSSTGGSLKSLRDKLMPQDKDKDKEKETPEVSGLKTAGPEGEITAGYLMKKSAKTNGWSRRWFVLNEKTGKLGYTKKQEERNFRGTVTLEECSIEEISDDEGEKSKSSKDKKSNGPDSKGPGLVFKITCRVPYKTVLKAHNALVLKAESMVDKNEWINKLQKVIQARGGQVGSASMRQSLSEGSLDKMVRKPVDPEEELRWMSQEVRGYVEAVLNSLAANVPKAVVLCQVEKSKEDMLNQLYSSISAIGNERIESLIQEDQNVKRRRDRYQKQSSLLSKLTRQLSIHDNRAAAASSWSDNSGTESSPRTNGGSSGEDWMNAFNAAASGPDSLKRYGSGGHSRRYSDPAQNGEDSSGSGGSSRRTTPNRLPPAPPQSGSSYRY
Molecule B1 came in with a Normalized Fold Change: SA vs Mock of 2.5 fold.

B2: VLN2, villin 2 (protein, UniProt O81644 1-976, looked up)
Villin-2: MSTKVLDPAFQGAGQKPGTEIWRIENFEAVPVPKSEHGKFYMGDTYIVLQTTQNKGGAYLFDIHFWIGKDTSQDEAGTAAVKTVELDAVLGGRAVQHREIQGHESDKFLSYFKPCIIPLEGGVASGFKTVEEEVFETRLYTCKGKRAIRLKQVPFARSSLNHDDVFILDTEEKIYQFNGANSNIQERAKALEVVQYLKDKYHEGTCDVAIVDDGKLDTESDSGAFWVLFGGFAPIGRKVANDDDIVPESTPPKLYCITDGKMEPIDGDLSKSMLENTKCYLLDCGAEIYIWVGRVTQVDERKAASQSAEEFLASENRPKATHVTRVIQGYESHSFKSNFDSWPSGSATPGNEEGRGKVAALLKQQGVGLKGIAKSAPVNEDIPPLLESGGKLEVWYVNGKVKTPLPKEDIGKLYSGDCYLVLYTYHSGERKDEYFLSCWFGKKSIPEDQDTAIRLANTMSNSLKGRPVQGRIYEGKEPPQFVALFQPMVVLKGGLSSGYKSSMGESESTDETYTPESIALVQVSGTGVHNNKAVQVETVATSLNSYECFLLQSGTSMFLWHGNQSTHEQLELATKVAEFLKPGITLKHAKEGTESSTFWFALGGKQNFTSKKASSETIRDPHLFSFAFNRGKFQVEEIYNFAQDDLLTEDIYFLDTHAEVFVWVGQCVEPKEKQTVFEIGQKYIDLAGSLEGLHPKVPIYKINEGNEPCFFTTYFSWDATKAIVQGNSFQKKASLLFGTHHVVEDKSNGGNQGLRQRAEALAALNSAFNSSSNRPAYSSQDRLNESHDGPRQRAEALAALSSAFNSSSSSTKSPPPPRPVGTSQASQRAAAVAALSQVLVAENKKSPDTSPTRRSTSSNPADDIPLTEAKDEEEASEVAGLEAKEEEEVSPAADETEAKQETEEQGDSEIQPSGATFTYEQLRAKSENPVTGIDFKRREAYLSEEEFQSVFGIEKEAFNNLPRWKQDLLKKKFDLF
The molecule B2 came in with a Normalized Fold Change: SA vs Mock of 3.54 fold.

B3: UBP24, ubiquitin-specific protease 24 (protein, UniProt Q9FPS3 1-551, looked up)
Ubiquitin carboxyl-terminal hydrolase 24: MSEKKVFVFGSFTEHETRSFFEQKPTKDPQNSKDKCVGSIQFGSLNLAAENSSVNTNGELKKGEADGTVKSAGSQERLDASRPASSDKNNDSDAKLPRKNSLRVPEHVVQNGIIKEISESNKSLNNGVAVKTDPIGLDNLSMSDGESDPVYKASSSKFQALDNEDFSSDSSSGSIQRKKNLKVPTESVPPVKDFTPRGLINAGNLCFLNATLQALLSCSPFVQLLQKIQLQDIPKADSPTLAAFSEFISELDVPSSSSIRNNVTVVEAGRPFRPAMFEGVLRNFTPDVLNNMSGRPRQEDAQEFLSFIMDQMHDELLKLKEQSPKVTASKSSVISSANDDGDEWETVGPKNKSAVTRTQSFVPSELSEIFGGQLKSVVKAKGTKASATVQPYLLLHLDIHPDGVQGIEDALHLFSAQEDLEGYRASVTGKTGVVSASKSIKIQKLSKIMILHLMRFSYGSQGSTKLRKGVKFPLELNLNRSHLVSLSNESLRYELVATITHHGWDPSKGHYTTDARRKNGQWLRFDDASVTPIGTKLVLHDQAYVLFYKQV
B3 yielded a Normalized Fold Change: SA vs Mock of 2580 fold.

B4: UBP14, ubiquitin-specific protease 14 (protein, UniProt Q8L6Y1 1-797, looked up)
Ubiquitin carboxyl-terminal hydrolase 14: MELLRSNLSRVQIPEPTHRIYKHECCISFDTPRSEGGLFVDMNSFLAFGKDYVSWNYEKTGNPVYLHIKQTRKSIPEDRPLKKPTLLAIGVDGGFDNNEPEYEESYSIVILPDFVSLPFPSVELPEKVRIAVDTVVNAVGAERKEQVAAWTAEKKLISEHALTLQQIKSGIVIPPSGWKCSKCDKTENLWLNLTDGMILCGRKNWDGTGGNNHAVEHYKETAYPLAVKLGTITADLEAADVYSYPEDDSVLDPLLAEHLAHFGIDFSSMQKTEMTTAERELDQNTNFDWNRIQESGKELVPVFGPGYTGLVNLGNSCYLAATMQIVFSTHSFISRYFSHQSLKMAFEMAPADPTLDLNMQLTKLGHGLLSGKYSMPATQKDATTGDPRQEGIPPRMFKNVIAASHAEFSSMRQQDALDFFLHLVGKVERASNTTPDLDPSRSFKFGIEEKILCPSGKVGYNKREDCILSLNIPLHEATNKDELEAFHKQKAGKGLEENDMRSSDEIVRPRVPLEACLANFASSEPIEDYYSSALKGMTTAIKTTGLTSFPDYLVLHMRKFVMEEGWVPKKLDVYIDVPDVIDISHMRSKGLQPGEELLPDGVPEEVMESAQPVANEEIVAQLVSMGFSQLHCQKAAINTSNAGVEEAMNWLLSHMDDPDIDAPISHQTSDIDQSSVDTLLSFGFAEDVARKALKASGGDIEKATDWVFNNPNASVSDMDVSSSNSAQTPAQSGLPDGGGKYKLFGIVSHMGTSVHCGHYVAHILKEGRWVIFNDDKVGISTDPPKDMGYVYFFQRLD
With B4, the Normalized Fold Change: SA vs Mock came out at 5.02 fold.

B5: NTF2B, nuclear transport factor 2B (protein, UniProt Q9C7F5 2-126, looked up)
Nuclear transport factor 2B: SQMDPDAVSKAFVEHYYSTFDTNRVGLAGLYQEASMLTFEGQKIQGVQSIVAKLTSLPFQQCKHHISTVDCQPSGPASGMLVFVSGNLQLAGEEHALKFSQMFHLMPTPQGSFYVFNDIFRLNYA
Turning to B5, the Normalized Fold Change: SA vs Mock worked out at 11.2 fold.

B6: SINAT2, seven in absentia of Arabidopsis 2 (protein, UniProt Q9M2P4 1-308, looked up)
E3 ubiquitin-protein ligase SINAT2: MAPGGSALKEVMESNSTGMDYEVKTAKVEVNNNKPTKPGSAGIGKYGIHSNNGVYELLECPVCTNLMYPPIHQCPNGHTLCSNCKLRVQNTCPTCRYELGNIRCLALEKVAESLEVPCRYQNLGCHDIFPYYSKLKHEQHCRFRPYTCPYAGSECSVTGDIPTLVVHLKDDHKVDMHDGCTFNHRYVKSNPHEVENATWMLTVFNCFGRQFCLHFEAFQLGMAPVYMAFLRFMGDENEAKKFSYSLEVGAHGRKLTWQGIPRSIRDSHRKVRDSQDGLIIPRNLALYFSGGDRQELKLRVTGRIWKEE
Molecule B6 displayed a Normalized Fold Change: SA vs Mock of 2.99 fold.
